Here are results for 125 sequences from the supplement of paper PMC9112550, “Optimization of the antimicrobial peptide Bac7 by deep mutational scanning” (BMC Biology, 2022).
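Further: peptides expressed intracellularly from a pBAD plasmid library in pooled LB shake-flask culture, induced with 0.3% L-arabinose, DNA abundance read by NGS, three biological replicates, DESeq2 with apeglm shrinkage.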

The data set relates to Escherichia coli TOP10. Description: shrunken log2 fold change of peptide-encoding DNA abundance (4.5 h post-induction vs induction); higher = less antimicrobial activity (less host growth inhibition). The settings on record: time post-induction: 4.5 h; library: site-saturation at positions 5, 18, 19, 20.
With RRIRSRPPRLPRPRPRPHKGPRP, the “shrunken log2 fold change” value is -0.22.
For the sequence RRIRMRPPRLPRPRPRPITPPRP, the “shrunken log2 fold change” value came out at 0.0378.
For RRIRSRPPRLPRPRPRPNAYPRP the value was -0.696; for RRIRARPPRLPRPRPRPTTDPRP, 0.745; for RRIRERPPRLPRPRPRPPWYPRP, -0.227.
For RRIRYRPPRLPRPRPRPEPFPRP the value was 0.0898; for RRIRFRPPRLPRPRPRPHIRPRP, -0.113.
For RRIRERPPRLPRPRPRPLFPPRP the value was -0.264.
Turning to RRIRWRPPRLPRPRPRPGDYPRP, the “shrunken log2 fold change” value is 0.0468.
For RRIRRRPPRLPRPRPRPGWKPRP, the “shrunken log2 fold change” value stood at 0.136.
In the case of RRIRIRPPRLPRPRPRPTMGPRP it was 0.0793; in that of RRIRKRPPRLPRPRPRPQWNPRP, -0.105.
RRIRGRPPRLPRPRPRPSLNPRP: the “shrunken log2 fold change” value came out at 0.105.
In the case of RRIRFRPPRLPRPRPRPSFQPRP it was -0.145; in that of RRIRKRPPRLPRPRPRPYCTPRP, -0.19; in that of RRIRHRPPRLPRPRPRPMLAPRP, -0.144.
In the case of RRIRTRPPRLPRPRPRPRFLPRP it was 0.903; in that of RRIRTRPPRLPRPRPRPHMPPRP, -0.422; in that of RRIRYRPPRLPRPRPRPMTGPRP, 0.0192.
Turning to RRIRHRPPRLPRPRPRPRCQPRP, the “shrunken log2 fold change” value stood at 0.219.
In the case of RRIRVRPPRLPRPRPRPCAIPRP it was -0.379.
For RRIRTRPPRLPRPRPRPTREPRP the value was -0.157.
In the case of RRIRFRPPRLPRPRPRPKWSPRP it was 0.321; in that of RRIRWRPPRLPRPRPRPAHCPRP, -0.0174; in that of RRIRYRPPRLPRPRPRPMNPPRP, 0.02.
For RRIRVRPPRLPRPRPRPFRCPRP, the “shrunken log2 fold change” value was -0.123.
For RRIRYRPPRLPRPRPRPFHDPRP the value was -0.195; for RRIRGRPPRLPRPRPRPWFYPRP, -0.4; for RRIRQRPPRLPRPRPRPWHRPRP, -0.0346.
In the case of RRIRERPPRLPRPRPRPGMWPRP it was 0.178.
In the case of RRIRERPPRLPRPRPRPQATPRP it was -0.0202; in that of RRIRTRPPRLPRPRPRPQGTPRP, 0.0402.
Consider RRIRTRPPRLPRPRPRPYSDPRP, for which the “shrunken log2 fold change” value is -0.148.
Consider RRIRKRPPRLPRPRPRPNYWPRP, for which the “shrunken log2 fold change” value amounted to 0.157.
As to RRIRFRPPRLPRPRPRPNPYPRP, the “shrunken log2 fold change” value is -0.238.
In the case of RRIRNRPPRLPRPRPRPTGMPRP it was 0.236; in that of RRIRSRPPRLPRPRPRPSPHPRP, -0.194.
As for RRIRARPPRLPRPRPRPTFKPRP, the “shrunken log2 fold change” value stood at 0.341.
For the sequence RRIRYRPPRLPRPRPRPFPVPRP, the “shrunken log2 fold change” value is -0.149.
In the case of RRIRYRPPRLPRPRPRPEAAPRP it was 0.319; in that of RRIRERPPRLPRPRPRPFSAPRP, -0.161.
For RRIRLRPPRLPRPRPRPWAMPRP the value was -0.0431.
For RRIRSRPPRLPRPRPRPMDCPRP the value was 0.00208; for RRIRPRPPRLPRPRPRPQRCPRP, -0.0388.
For the sequence RRIRIRPPRLPRPRPRPLNVPRP, the “shrunken log2 fold change” value is -1.23.
In the case of RRIRKRPPRLPRPRPRPVMAPRP it was 0.588; in that of RRIRVRPPRLPRPRPRPESMPRP, -0.149; in that of RRIRCRPPRLPRPRPRPCMCPRP, -0.668.
For RRIRVRPPRLPRPRPRPSWTPRP the value was -0.0613; for RRIRHRPPRLPRPRPRPDVKPRP, -0.0186.
For RRIRYRPPRLPRPRPRPIIAPRP the value was -1.18.
On to RRIRLRPPRLPRPRPRPYTNPRP, for which the “shrunken log2 fold change” value is -0.6.
For RRIRTRPPRLPRPRPRPYSNPRP the value was -0.941; for RRIRMRPPRLPRPRPRPLGRPRP, 0.723; for RRIRVRPPRLPRPRPRPKGIPRP, -0.115.
In the case of RRIRCRPPRLPRPRPRPCMGPRP it was -0.241; in that of RRIRDRPPRLPRPRPRPVPWPRP, 0.189.
In the case of RRIRGRPPRLPRPRPRPKERPRP it was 0.00594; in that of RRIRFRPPRLPRPRPRPFACPRP, -0.189.
Regarding RRIRFRPPRLPRPRPRPSCTPRP, the “shrunken log2 fold change” value is -0.407.
For RRIRTRPPRLPRPRPRPGIMPRP the value was -0.452; for RRIRTRPPRLPRPRPRPCYSPRP, -0.0481.
For RRIRQRPPRLPRPRPRPFIGPRP the value was -0.281; for RRIRTRPPRLPRPRPRPLVGPRP, 0.131; for RRIRNRPPRLPRPRPRPKNVPRP, -0.267.
For RRIRFRPPRLPRPRPRPECYPRP the value was -0.155.
On to RRIRERPPRLPRPRPRPPIAPRP, for which the “shrunken log2 fold change” value stood at 0.13.
For RRIRWRPPRLPRPRPRPQTMPRP the value was -0.00112.
For RRIRCRPPRLPRPRPRPVIEPRP the value was -0.141; for RRIRMRPPRLPRPRPRPHRKPRP, 0.0879.
Regarding RRIRHRPPRLPRPRPRPCGNPRP, the “shrunken log2 fold change” value was -0.196.
As to RRIRGRPPRLPRPRPRPIEYPRP, the “shrunken log2 fold change” value was determined as 0.0165.
For RRIRIRPPRLPRPRPRPGETPRP the value was 0.0122.
For RRIRVRPPRLPRPRPRPEGDPRP the value was 0.297; for RRIRIRPPRLPRPRPRPQMVPRP, -0.186.
As for RRIRLRPPRLPRPRPRPPCWPRP, the “shrunken log2 fold change” value amounted to 0.16.
In the case of RRIRWRPPRLPRPRPRPGFGPRP it was 0.651; in that of RRIRSRPPRLPRPRPRPTKFPRP, 0.0549.
In the case of RRIRQRPPRLPRPRPRPHFKPRP it was -0.332; in that of RRIRNRPPRLPRPRPRPNDCPRP, 0.0423.
For RRIRYRPPRLPRPRPRPLNNPRP the value was -1.29.
For RRIRERPPRLPRPRPRPHRTPRP, the “shrunken log2 fold change” value is -5.56e-05.
For RRIRCRPPRLPRPRPRPTPIPRP the value was 0.244; for RRIRCRPPRLPRPRPRPPDAPRP, 0.354; for RRIRPRPPRLPRPRPRPKYWPRP, -0.127.
In the case of RRIRVRPPRLPRPRPRPCLTPRP it was -0.0353; in that of RRIRRRPPRLPRPRPRPVDAPRP, 0.804; in that of RRIRVRPPRLPRPRPRPGATPRP, 0.277.
In the case of RRIRERPPRLPRPRPRPKYNPRP it was -0.7.
For RRIRYRPPRLPRPRPRPNTHPRP, the “shrunken log2 fold change” value was -1.02.
In the case of RRIRVRPPRLPRPRPRPWKQPRP it was -0.0479; in that of RRIRPRPPRLPRPRPRPENMPRP, -0.395.
For RRIRHRPPRLPRPRPRPHAMPRP the value was -0.00419.
For RRIRLRPPRLPRPRPRPRVSPRP the value was -0.0787.
With RRIRFRPPRLPRPRPRPKIKPRP, the “shrunken log2 fold change” value is -0.431.
In the case of RRIRYRPPRLPRPRPRPPFCPRP it was -0.332; in that of RRIRSRPPRLPRPRPRPVDDPRP, -0.14; in that of RRIRTRPPRLPRPRPRPYNGPRP, -0.203.
In the case of RRIRFRPPRLPRPRPRPGYAPRP it was -0.0137; in that of RRIRLRPPRLPRPRPRPWISPRP, 0.0832.
For RRIRCRPPRLPRPRPRPHKYPRP the value was -0.618; for RRIRHRPPRLPRPRPRPTKWPRP, 0.0132; for RRIRHRPPRLPRPRPRPGIWPRP, 0.139.
RRIRFRPPRLPRPRPRPVLSPRP: the “shrunken log2 fold change” value was -0.0531.
Turning to RRIRGRPPRLPRPRPRPQNMPRP, the “shrunken log2 fold change” value was -0.399.
For RRIRVRPPRLPRPRPRPEEKPRP the value was -0.0261; for RRIRGRPPRLPRPRPRPMFVPRP, 0.39.
In the case of RRIRFRPPRLPRPRPRPKDAPRP, the “shrunken log2 fold change” value was found to be 0.141.
For RRIRCRPPRLPRPRPRPAEIPRP the value was -0.0903.
In the case of RRIRDRPPRLPRPRPRPCQGPRP it was 0.028.
For RRIRPRPPRLPRPRPRPWFKPRP the value was -0.125; for RRIRPRPPRLPRPRPRPTPGPRP, 0.533.
RRIRRRPPRLPRPRPRPTICPRP: the “shrunken log2 fold change” value came to 0.394.
Consider RRIRNRPPRLPRPRPRPCRLPRP, for which the “shrunken log2 fold change” value was -0.0199.
In the case of RRIRIRPPRLPRPRPRPQPVPRP it was -0.169; in that of RRIRGRPPRLPRPRPRPVSCPRP, 0.885; in that of RRIRCRPPRLPRPRPRPCLAPRP, -0.257.
In the case of RRIRNRPPRLPRPRPRPKQSPRP it was -0.135; in that of RRIRQRPPRLPRPRPRPPHKPRP, 1.25.
In the case of RRIRERPPRLPRPRPRPSLCPRP it was -0.0545; in that of RRIRQRPPRLPRPRPRPRGGPRP, 0.484; in that of RRIRIRPPRLPRPRPRPPADPRP, 0.271.
Consider RRIRNRPPRLPRPRPRPAPWPRP, for which the “shrunken log2 fold change” value amounted to 0.266.
In the case of RRIRPRPPRLPRPRPRPMGWPRP it was 0.217; in that of RRIRKRPPRLPRPRPRPCALPRP, 0.0167.
